What was measured:
Assay in all cases: pull-down; peptides (5 nmol) covalently coupled to thiopyridone-Sepharose 6B beads via the C-terminal cysteine; 2 μg purified His-tagged Sar1A preincubated with 500 μM GTPγS in HK buffer (100 mM KCl, 20 mM Hepes pH 7.2); 1 h at 4 °C; immunoblotting
Details in all cases: both partners purified
[1] = target: T1, His-tagged human Sar1A^(Δ2-17, H79G) (human, UniProt Q9NR31 10-198, Δ2-17 | H79G)
T1 construct: Sar1A, human, H79G, depleted of its N-terminal amphipathic helix (Δ2-17); preincubated with GTPγS; also called Sar1A^(Δ2-17, H79G)-His; Sar1A (Δ2-17, H79G)-His; source: recombinant (cloned into pET-28a), purified; not shown: His, C-terminal, kept
T1 sequence (Q9NR31 18-198 H79G): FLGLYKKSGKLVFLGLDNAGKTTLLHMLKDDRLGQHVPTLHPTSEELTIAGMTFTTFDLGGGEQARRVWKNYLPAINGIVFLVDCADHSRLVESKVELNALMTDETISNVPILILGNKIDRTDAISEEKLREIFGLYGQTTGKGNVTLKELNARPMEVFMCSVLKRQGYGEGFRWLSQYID

[2] = target: T2, Sar1A (Δ2-17, H79G, D198A) (human, UniProt Q9NR31 10-198, Δ2-17 | H79G | D198A)
T2 construct: Sar1A, human, Δ2-17, H79G with D198A; preincubated with GTPγS; also called Sar1A bearing the D198A mutation; source: recombinant, purified
T2 sequence (Q9NR31 18-198 H79G/D198A): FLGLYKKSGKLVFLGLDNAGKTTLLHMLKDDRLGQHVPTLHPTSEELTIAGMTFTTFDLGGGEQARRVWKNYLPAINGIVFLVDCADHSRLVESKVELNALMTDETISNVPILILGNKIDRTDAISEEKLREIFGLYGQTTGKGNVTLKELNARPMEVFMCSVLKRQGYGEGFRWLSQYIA

[3] = target: T3, Sar1A (Δ2-17, E62A, E63A, H79G) (human, UniProt Q9NR31 10-198, Δ2-17 | E62A | E63A | H79G)
T3 construct: Sar1A, human, Δ2-17, H79G with E62A and E63A; preincubated with GTPγS; also called Sar1A (Δ2-17, H79G, E62A, E63A)-His; source: recombinant, purified; not shown: His, C-terminal, kept
T3 sequence (Q9NR31 18-198 E62A/E63A/H79G): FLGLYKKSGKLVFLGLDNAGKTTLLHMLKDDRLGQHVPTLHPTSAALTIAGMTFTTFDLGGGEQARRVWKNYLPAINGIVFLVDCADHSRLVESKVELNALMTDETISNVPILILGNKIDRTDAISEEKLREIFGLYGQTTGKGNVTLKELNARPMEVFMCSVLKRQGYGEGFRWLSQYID

Measured: binding result

B1: RRFR peptides (first intracellular loop of Fzd6) (peptide)
peptide: VRRFRYPERPC
notes: first intracellular loop of Fzd6 with the polybasic motif RRFR; added C-terminal cysteine residue, used to couple the peptide to thiopyridone-Sepharose 6B beads; Covalently linked to thiopyridone-Sepharose 6B through the added C-terminal cysteine; source: synthetic peptide, bought: GenScript
binds: all assays above

Source: publication PMC7335806, “Molecular mechanisms that regulate export of the planar cell-polarity protein Frizzled-6 out of the endoplasmic reticulum” (The Journal of Biological Chemistry, 2020)
